# Measurements reported in paper PMC11927390 (2025).
# Substitutions are numbered along the chain they refer to.
# B1: human MICA (MHC class I polypeptide-related sequence A), soluble recombinant (ligand)
# chain: EPHSLRYNLTVLSWDGSVQSGFLTEVHLDGQPFLRCDRQKCRAKPQGQWAEDVLGNKTWDRETRDLTGNGKDLRMTLAHIKDQKEGLHSLQEIRVCEIHEDNSTRSSQHFYYDGELFLSQNLETKEWTMPQSSRAQTLAMNVRNFLKEDAMKTKTHYHAMHADCLQELRRYLKSGVVLRRTVPPMVNVTRSEASEGNITVTCRASGFYPWNITLSWRQDGVSLSHDTQQWGDVLPDGNGTYQTWVATRICQGEEQRFTCYMEHSGNHSTHPVPSGKVLVLQSHW
# B2: human ULBP1 (ligand)
# chain: GWVDTHCLCYDFIITPKSRPEPQWCEVQGLVDERPFLHYDCVNHKAKAFASLGKKVNVTKTWEEQTETLRDVVDFLKGQLLDIQVENLIPIEPLTLQARMSCEHEAHGHGRGSWQFLFNGQKFLLFDSNNRKWTALHPGAKKMTEKWEKNRDVTMFFQKISLGDCKMWLEEFLMYWEQMLDPTKPPSLAPG
# B3: human ULBP2 (ligand)
# chain: GRADPHSLCYDITVIPKFRPGPRWCAVQGQVDEKTFLHYDCGNKTVTPVSPLGKKLNVTTAWKAQNPVLREVVDILTEQLRDIQLENYTPKEPLTLQARMSCEQKAEGHSSGSWQFSFDGQIFLLFDSEKRMWTTVHPGARKMKEKWENDKVVAMSFHYFSMGDCIGWLEDFLMGMDSTLEPSAGAPLAMSS
# B4: human ULBP6-02 extracellular domain (residues R26-G218) (ligand)
# chain: RRDDPHSLCYDITVIPKFRPGPRWCAVQGQVDEKTFLHYDCGNKTVTPVSPLGKKLNVTMAWKAQNPVLREVVDILTEQLLDIQLENYTPKEPLTLQARMSCEQKAEGHSSGSWQFSIDGQTFLLFDSEKRMWTTVHPGARKMKEKWENDKDVAMSFHYISMGDCIGWLEDFLMGMDSTLEPSAGAPLAMSSG
# modifications: glycosylation of residues N68 and N82 (in the crystal structure)
# B5: human ULBP6-01 (residues G26-G218) (ligand)
# chain: B4 chain with R1G, M60T, L81R, T122I
# B6: human ULBP3 (ligand)
# chain: DAHSLWYNFTIIHLPRHGQQWCEVQSQVDQKNFLSYDCGSDKVLSMGHLEEQLYATDAWGKQLEMLREVGQRLRLELADTELEDFTPSGPLTLQVRMSCECEADGYIRGSWQFSFDGRKFLLFDSNNRKWTVVHAGARRMKEKWEKDSGLTTFFKMVSMRDCKSWLRDFLMHRKKRLEPTAPPTMAPG
# B7: human ULBP5 (ligand)
# chain: GLADPHSLCYDITVIPKFRPGPRWCAVQGQVDEKTFLHYDCGSKTVTPVSPLGKKLNVTTAWKAQNPVLREVVDILTEQLLDIQLENYIPKEPLTLQARMSCEQKAEGHGSGSWQLSFDGQIFLLFDSENRMWTTVHPGARKMKEKWENDKDMTMSFHYISMGDCTGWLEDFLMGMDSTLEPSAGAPPTMSSG
# B8: Fc-tagged human NKG2D (Fc fusion)
# chain: IWSAVFLNSLFNQEVQIPLTESYCGPCPKNWICYKNNCYQFFDESKNWYESQASCMSQNASLLKVYSKEDQDLLKLVKSYHWMGLVHIPTNGSWQWEDGSILSPNLLTIIEMQKGDCALYASSFKGYIENCSTPNTYICMQRTV
# Target: B8
# Assay: SPR
row,Kd,Binder
1,83.2 nM,B1
2,138 nM,B2
3,262 nM,B3
4,2.69 nM,B4
5,42.7 nM,B5
6,836 nM,B6
7,93.4 nM,B7

# Target: MICB
# Assay: SPR
row,Kd,Binder
1,105 nM,B8
